Assay results reported in patent publication US20070249534A1, “Novel medicament for treating neurodegenerative diseases” (priority 2001, published 2007).
Like-named read-outs stand apart in the source and are kept apart here. Where a SMILES comes first, the peptide text is derived from it. Where no end group is shown, it is not given here. [ ]: non-standard residue; d: D form. Sec = N[C@@H](C[SeH])C(=O)O

How the values were obtained:
[1] = tested on: Dami cells; experiment: Cytotoxicity-inhibitory (cell death-inhibitory) activity assay using Dami cells; format: cell-based; conditions: for cell death-inhibitory activity (in words): selenoprotein P and fragments purified from plasma
Description: Using Dami cells (described in Greenberg S. M. et al., Blood, vol. 72, p. 1968-1977 (1988)) for use in assay system for cytotoxicity-inhibitory activity, the cells were washed twice with assay medium (50% PBS/SA/0.03% HSA (manufactured by SIGMA) or SA/0.05% BSA free from fatty acid (WAKO)/4 μM long-chain polyvalent fatty acid (e.g. arachidonic acid, linoleic acid or linolenic acid)) and suspended in the same medium at 3×10^4 cells/ml. The cell suspension was added to a 96-well plate in each 200 μl for wells for sample addition or in each 100 μl for wells for serial dilution. […] After stirring, a serial dilution was made with the wells containing 100 μl cell suspension. The plate was incubated at 37° C. in CO2 incubator for 4 to 5 days followed by assessment of survival of the cells.

[2] = tested on: Rolling Mouse Nagoya; conditions: intraperitoneal administration; cited from earlier work
[3] = tested on: Dami cells
[4] = tested on: Dami cells; conditions: stated as known; cited from earlier work
[5] = tested on: Dami cells; experiment: Toxicity of selenium-containing substances to cells in culture; conditions: concentration where selenocystine / other selenium-containing substances show toxicity
[6] = tested on: Rolling Mouse Nagoya; experiment: Effect of selenoprotein P on ataxia (stumbling index) in Rolling Mouse Nagoya; format: in vivo
Description: In order to confirm the activity to ameliorate ataxia of selenoprotein P, Rolling Mouse Nagoya, the established model of ataxia, was used with a stumbling index. Animals were divided into the following groups each consisting of ten animals: a control group intraperitoneally administered with saline (0.25 mL/head/week); a group intraperitoneally administered with a low dose of selenoprotein P (0.05 mg/head/week; 0.25 mL/head/week); and a group intraperitoneally administered with a high dose of selenoprotein P (0.5 mg/head/week; 0.25 mL/head/week). The animals received intraperitoneal administration once a week for three weeks.
The animals were Rolling Mouse Nagoya (113 animals, five to eight months old, weighing 19.1 to 36.2 g) regardless of sex. Grouping of the animals was based on the weight measured on the day before initiation of the experiment and a stumbling index measured before initiation of the experiment. A quantity of voluntary motion was measured during thirty minutes immediately before administration (during 30-0 min. before administration), immediately after administration (during 0-30 min. after administration), one hour after administration (during 60-90 min. after administration), three hours after administration (during 180-210 min. after administration), and seven hours after administration (during 420-450 min. after administration) with a device for measuring voluntary motion. Stumbling of animals was counted with a video camera set upon the device for measuring voluntary motion during the same time period as that of measurement of voluntary motion. A stumbling index was calculated by the formula: [Count of stumbling (count/30 min.)]/[Voluntary motion (count/30 min.)]. The results are shown in FIGS. 1 to 3 wherein #: p<0.05, ##: p<0.01, being significant as compared to values before administration (paired t-test); *: p<0.05, being significant as compared to control during the same time period (Turkey test).

[7] = Stability of selenoprotein P and its fragments to heat, denaturing agent, pH, protease in blood; format: physicochemical; conditions: compared to common enzymes

## CC[C@H](C)[C@H](NC(=O)[C@H](CC(C)C)NC(=O)[C@H](Cc1c[nH]cn1)NC(=O)[C@H](CCCNC(=N)N)NC(=O)[C@H](CO)NC(=O)[C@H](Cc1c[nH]cn1)NC(=O)[C@H](CO)NC(=O)[C@H](CO)NC(=O)[C@H](C[SeH])NC(=O)[C@H](CO)NC(=O)[C@@H](N)CCCNC(=N)N)C(=O)N[C@@H](Cc1ccccc1)C(=O)N[C@@H](CCC(=O)O)C(=O)N[C@@H](CCCCN)C(=O)O [Peptide 6, Arg Ser Xaa Ser Ser His Ser Arg His Leu Ile Phe Glu Lys] (H-RS[Sec]SSHSRHLIFEK-OH)
[1]; Dami cells, peptides of Preparation 2
  cytotoxicity-inhibitory activity (in words): most effectively at the lowest concentration

## NC(=O)[C@@H]1CCCN1C(=O)[C@H](Cc1cnc[nH]1)NC(=O)[C@@H]1CCC(=O)N1 [TRH, thyrotropin-releasing hormone]
[2]
  duration of the efficacy: about 1 hours

## N[C@@H](C[Se][Se]C[C@H](N)C(=O)O)C(=O)O [selenocystine]
[3]
  toxicity (in words): exhibited toxicity
[4]
  toxicity when added alone to cell culture: fairly strong toxicity

## Lys Arg Cys Ile Asn Gln Leu Leu Cys Lys Leu Pro Thr Asp Ser Glu Leu Ala Pro Arg Ser Xaa Cys Cys H is Cys Arg H is Leu Ile Phe Glu Lys (KRCINQLLCKLPTDSELAPRS[Sec]CCHCRHLIFEK; cysteine pairing not given here; listed as Human plasma) [SEQ ID NO: 3, peptide purified under reduced condition from selenoprotein P fragment]
[1]
  cell death-inhibitory activity (in words): had the cell death-inhibiting activity

B1: selenoprotein P (protein)
chain: ESQDQSSLCKQPPAWSIRDQDPMLNSNGSVTVVALLQASUYLCILQASKLEDLRVKLKKEGYSNISYIVVNHQGISSRLKYTHLKNKVSEHIPVYQQEENQTDVWTLLNGSKDDFLIYDRCGRLVYHLGLPFSFLTFPYVEEAIKIAYCEKKCGNCSLTTLKDEDFCKRVSLATVDKTVETPSPHYHHEHHHNHGHQHLGSSELSENQQPGAPNAPTHPAPPGLHHHHKHKGQHRQGHPENRDMPASEDLQDLQKKLCRKRCINQLLCKLPTDSELAPRSUCCHCRHLIFEKTGSAITUQCKENLPSLCSUQGLRAEENITESCQURLPPAAUQISQQLIPTEASASURUKNQAKKUEUPSN
modifications: non-natural residues
[1]
  cell death-inhibitory activity (in words): much lower than that of the fragment thereof
[5]
  toxicity (in words): no strong toxicity
[6]; high dose 0.5 mg/head/week i.p., 420-450 min Week 1, 60-90, 180-210, 420-450 min Week 2, 60-90 min Week 3
  stumbling index compared with values before administration: significant decrease
[6]; high dose 0.5 mg/head/week i.p., during 60-90 min. after administration on Week 1
  stumbling index compared with control group, significance: significant decrease
[6]; high dose 0.5 mg/head/week i.p., each time period on Week 1, Week 2 and Week 3
  stumbling index compared with control group: remained lower than the control group
[6]; low dose 0.05 mg/head/week i.p.
  stumbling index, low dose group: no significant decrease
[7]
  stability to heat, a denaturing agent, a broad range of pH or protease in blood: rather stable

B2: SEQ ID NO: 2: selenoprotein P fragment, 260th to 362nd amino acids (103 C-terminal residues) (protein, listed as Human plasma)
chain: KRCINQLLCKLPTDSELAPRS[code U]CCHCRHLIFEKTGSAIT[code U]QCKENLPSLCS[code U]QGLRAEENITESCQ[code U]RLPPAA[code U]QISQQLIPTEASAS[code U]R[code U]KNQAKK[code U]E[code U]PSN
modifications: ends and bridges not checked
[1]
  cell death-inhibitory activity (in words): having the cell death-inhibiting activity
